Values of other authors, collected in paper PMC9705454 (Clinical Drug Investigation, 2022).

Experiments:
[1] = metabolite slowly released from the subcutaneous depot

Substance	share of plasma exposure accounted for by the main active metabolite [1]	half-life in circulation
insulin glargine	> 90%	–
teduglutide	–	approximately 2 h
